Measurements reported in article PMC3863775.
Like-named read-outs stand apart in the source and are kept apart here.

How the values were obtained:
Test in all cases: cryo-EM structure; single-particle cryoEM of the icosahedral head of purified BPP-1 virions, frozen hydrated; 50 mM Tris-HCl, 250 mM NaCl, 1 mM MgCl2, pH7.5; ~3.5 Å (capsid), ~3.4 Å (averaged CP and MCP)
[1] = target: cement protein (CP) Bbp16 of bacteriophage BPP-1 (Bordetella bacteriophage BPP-1)
[2] = target: major capsid protein (MCP) Bbp17 of bacteriophage BPP-1 (Bordetella bacteriophage BPP-1)
[3] = target: major capsid protein (MCP) Bbp17 of bacteriophage BPP-1 (Bordetella bacteriophage BPP-1); remark: listed apart in the source

| Substance | stoichiometry N [1] | stoichiometry N [2] | stoichiometry N [3] |
| --- | --- | --- | --- |
| cement protein (CP) Bbp16 of bacteriophage BPP-1 (natural protein) | 2 | – | – |
| major capsid protein (MCP) Bbp17 of bacteriophage BPP-1 (natural protein) | – | 6 | 5 |
